Assay results: article PMC12855784
Where two headings read alike, the source gives them in different places.

Experiments:
Assay in all cases: SEC-MALS
[1] = biological target: AcrIIA19 (full length, C-terminal 6×His tag) (Staphylococcus pseudintermedius)
[2] = biological target: Streptococcus pyogenes Cas9, full length, 6×His tagged (Streptococcus pyogenes) (UniProt Q99ZW2)
[3] = biological target: AcrIIA19 (full length, C-terminal 6×His tag) (Staphylococcus pseudintermedius); remark: listed apart in the source

UniProt Q99ZW2, sequence (Q99ZW2 whole entry): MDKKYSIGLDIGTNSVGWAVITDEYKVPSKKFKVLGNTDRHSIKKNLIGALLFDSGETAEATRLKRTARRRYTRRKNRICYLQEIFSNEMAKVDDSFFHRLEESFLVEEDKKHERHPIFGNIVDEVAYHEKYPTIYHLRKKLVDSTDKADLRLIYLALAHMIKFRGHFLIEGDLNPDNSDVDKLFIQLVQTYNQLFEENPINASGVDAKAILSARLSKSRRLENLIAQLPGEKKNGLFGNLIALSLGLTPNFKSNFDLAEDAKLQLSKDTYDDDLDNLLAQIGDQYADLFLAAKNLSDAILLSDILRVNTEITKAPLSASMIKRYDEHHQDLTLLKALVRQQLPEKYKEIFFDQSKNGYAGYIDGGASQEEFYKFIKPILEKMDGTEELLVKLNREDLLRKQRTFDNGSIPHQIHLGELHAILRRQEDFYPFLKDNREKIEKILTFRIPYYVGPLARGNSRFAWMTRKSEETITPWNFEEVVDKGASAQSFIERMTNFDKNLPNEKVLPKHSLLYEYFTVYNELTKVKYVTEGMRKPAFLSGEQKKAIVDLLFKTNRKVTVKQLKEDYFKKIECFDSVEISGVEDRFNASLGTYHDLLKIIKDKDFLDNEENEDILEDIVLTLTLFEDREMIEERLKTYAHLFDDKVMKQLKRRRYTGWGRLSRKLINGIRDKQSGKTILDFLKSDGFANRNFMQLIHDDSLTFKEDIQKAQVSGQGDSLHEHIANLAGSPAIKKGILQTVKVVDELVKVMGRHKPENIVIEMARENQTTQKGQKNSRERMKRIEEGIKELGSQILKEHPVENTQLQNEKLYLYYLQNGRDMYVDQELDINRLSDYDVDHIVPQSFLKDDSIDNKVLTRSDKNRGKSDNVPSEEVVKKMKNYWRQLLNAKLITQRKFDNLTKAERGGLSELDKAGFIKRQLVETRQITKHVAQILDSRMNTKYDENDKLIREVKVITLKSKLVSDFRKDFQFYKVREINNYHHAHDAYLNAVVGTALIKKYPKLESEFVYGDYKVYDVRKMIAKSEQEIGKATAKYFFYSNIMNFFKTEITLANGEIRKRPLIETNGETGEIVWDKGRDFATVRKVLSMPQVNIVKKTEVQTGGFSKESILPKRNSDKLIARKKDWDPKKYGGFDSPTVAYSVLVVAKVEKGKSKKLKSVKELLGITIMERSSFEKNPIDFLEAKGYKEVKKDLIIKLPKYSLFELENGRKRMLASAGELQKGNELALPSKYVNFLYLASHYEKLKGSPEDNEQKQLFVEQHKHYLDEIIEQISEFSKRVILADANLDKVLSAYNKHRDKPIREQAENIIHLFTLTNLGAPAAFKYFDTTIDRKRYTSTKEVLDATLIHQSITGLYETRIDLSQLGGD

AcrIIA19 (full length, C-terminal 6×His tag) (natural protein)
stoichiometry N [1]: 2
stoichiometry N (AcrIIA19 per Cas9) [2]: 1
stoichiometry N [3]: 2
